By EC50 is commonly meant the concentration giving half of the maximal effect.

The values that follow come from patent US20220380801A1, “TRIPARTITE SYSTEMS FOR PROTEIN DIMERIZATION AND METHODS OF USE” (priority 2019, published 2022).

Where “and” joins values, the source holds several entries; their conditions need not be identical. Identical values can stand only once. Like-named read-outs stand apart in the source and are kept apart here.

The test system of assay [1] is luciferase reporter gene in HEK293 cells. In words: Transcriptional regulation assay (split transcription factor), luciferase reporter. The assay is classed as cell-based, human. The following applies: for EC50: read-out: EC50; for fold increase in luciferase expression: direct comparison of DBD-PRSIM constructs with FRB:FKBP12:rapalog positive control; for max fold change: firefly luciferase. An excerpt:
The iDimerize regulated transcription system (Takara) was used to test the ability of PRSIM-based CIDs to regulate gene expression. […] The DBD and AD are separately fused to the two protein components of a CID such that, only in the presence of the small molecule inducer, the AD is brought into close proximity to the DBD, recruiting the transcription machinery to a promoter harbouring the DBD recognition sites. The iDimerize regulated transcription system (Takara) provides two vectors, pHet-Act1-2 and pZFHD1-Luciferase. The pHet-Act1-2 vector encodes two fusion proteins that represent a positive control: one is a fusion between FRB (T82L mutant; DmrC) and an activation domain (AD) from human p65 (SEQ ID NO: 42); the other is a fusion protein comprised of a DNA binding domain (ZFHD1) (SEQ ID NO: 43) fused to three tandem copies of FKBP12 (DmrA). These sequences are preceded by a CMV promoter and separated by an internal ribosome entry site (IRES). The ZFHD1 vector encodes luciferase preceded by an inducible promoter consisting of 12 copies of the recognition sequence of the ZFHD1 DBD upstream of a minimal IL-2 promoter. Binding of the DBD to its recognition sequence and recruitment of the transcriptional machinery by the AD initiates transcription of the luciferase reporter gene. The DNA sequence encoding HCV NS3/4A PR (S139A) was purchased as a DNA string from GeneArt and cloned into the pHet-Act1-2 vector as either an N-terminal fusion partner to the activation domain (SEQ ID NO: 44) (replacing FRB) or as a C-terminal fusion partner to the DNA binding domain (SEQ ID NO: 45) (replacing FKBP12) with flexible linkers (TGGGGSGGGGS (SEQ ID NO: 185) and SA, respectively) between the fusion partners. Subsequently, sequences encoding one copy of a panel of 12 PRSIM molecules (Table 2) were purchased as DNA strings from GeneArt and were cloned using Gibson assembly into the HCV NS3/4A PR (S139A)-containing pHetAct1-2 constructs described above, as a fusion partner to either the DBD (SEQ ID NOS: 46-56) or AD (SEQ ID NOS: 57-67), respectively. An equivalent construct was generated to replace the three copies of FKBP12 in pHet-Act1-2 with a single copy of FKBP12. The sequence of the constructs encoding both activation domain and DNA-binding domain fusion proteins was confirmed by Sanger sequencing of the entire coding region.
Sequences encoding the three HCV NS3/4A PR (S139A) mutants (Table 6) were purchased as DNA strings from GeneArt and were cloned using Gibson assembly into the pHetAct1-2 HCV NS3/4A PR (S139A)-PRSIM_23 (3 tandem copy) construct described above as a fusion partner to the AD (SEQ ID NOs: 211-216).
All transcriptional regulation assays were performed in adherent HEK293 cells cultured in 384-well plates. Cells enzymatically dissociated from a tissue culture flask were counted and plated at 7.5×10^3 cells/well in a 384-well plate. The plates were incubated overnight at 37° C. with 5% CO2 to allow the cells to adhere. On day 2, the cells were co-transfected with a pHet-Act1-2 plasmid (containing the FRB:FKBP12 control fusion proteins (Clontech) or the HCV NS3/4A PR (S139A):PRSIM fusion proteins) and a pZFHD1 plasmid (encoding either luciferase (Clontech) or NanoLuc-PEST (as described above)) using Lipofectamine LTX (ThermoFisher). On day 3, wells were treated with different concentrations of either A/C heterodimeriser (for the FRB:FKBP12 control), simeprevir or with vehicle control, and 24 hours later luminescence was quantified with an Envision plate reader immediately following addition of SteadyGlo luciferase substrate (Promega) or Nano-Glo Vivazine luciferase substrate (Promega). Alternatively, reverse transfections were carried out on Day 1, addition of dimeriser on Day 2 and luminescence quantified 24 hours later on Day 3.
Luminescence readings were converted into fold-change by dividing the signal in the presence of simeprevir by that in the absence of simeprevir.

For the next assay, the target named is BSA (Bos taurus, UniProt P02769). The experiment in a line: Biacore 8K BSA control. The class given is binding. Also on record: key: # = no binding; * = minimal non-specific binding. To be noted: 10 nM simeprevir present. The protocol:
The HCV NS3/4A PR (S139A), or BSA control, was diluted 1:4 (1.25-20 nM)±10 nM simeprevir in 10 mM Hepes pH 7.4, 150 mM NaCl, 0.05% Surfactant P20, 0.01% DMSO, ensuring constant simeprevir and DMSO concentration. The samples were flowed over the chip at 50 μl/min using single cycle kinetics, with 120 sec association and 600 sec dissociation. The chip surface was regenerated with two 20 sec pulses of 10 mM Glycine-HCl pH 3.0. The final sensorgrams were analysed using the Biacore 8K Evaluation Software and the affinity constant KD was determined using a 1:1 binding model. The same method was used for measuring the affinity of the HCV NS3/4A PR mutants for PRSIM_23 with minor deviations. The mutants were diluted 1:4 (2.5-40 nM)±simeprevir in 10 mM Hepes pH 7.4, 150 mM NaCl, 0.05% Surfactant P20, 0.08% DMSO, ensuring constant simeprevir and DMSO concentration. The samples were flowed over the chip at 50 μl/min using single cycle kinetics, with 180 sec association and 600 sec dissociation.

The mark [2] stands for this setting: PRSIM fused to AD, one copy, simeprevir dose-response.
The mark [3] stands for this setting: PRSIM fused to DBD, one copy, simeprevir dose-response.

B1: PRSIM_57: scFv specific for HCV NS3/4A PR (S139A):simeprevir complex, SEQ ID NO: 12 (protein)
scFv: QVQLVQSGAEVKKPGSSVKVSCKASGGTFSSYAISWVRQAPGQGLEWMGGIIPIFGTANYAQKFQGRVTITADESTSTAYMELSSLRSEDTAVYYCARHTNYITVFDYWGQGTLVTVSSGGGGSGGGGSGGGGSAQSVLTQPPSASGTPGQRVTISCSGSSSNIGSNTVNWYQQLPGTAPKLLIYSNNQRPSGVPDRFSGSKSGTSASLAISGLQSEDEADYYCAAWDHHWEQVVFGGGTKLTVL
modifications: PRSIM_57
In the case of B1, the Max fold change is 10.73 in assay [1] (PRSIM fused to AD, one copy); 146 and 146.6 in assay [1] (PRSIM fused to DBD, one copy). For the same molecule, the EC50 in assay [1] (setting [2]) was 3.21 nM; in assay [1] (setting [3]), 3.54 nM. In assay [1], the “fold increase in luciferase expression” value is reported as 100 fold. The BSA control result in the assay with BSA was “#”.

B2: PRSIM_67: scFv PRSIM binding molecule, SEQ ID NO: 13 (protein)
scFv: EVQLVQSGAEVKKPGAAVRISCKTSGYVFTSYYVHWVRQAPGQGLEWMGVINPSGGNTNYAQKFQDRVTMTRDTSTTTVYMELSSLMFDDTAVYYCAKRDYGGPLANWGRGTLVTVSSGGGGSGGGGSGGGGSALSYELTQPPSVSEAPRQRVTISCSGSSSNIGNNAVNWYQQLPGKAPKLLIFYDDLLPSGVSDRFSGSKSGTSASLAISGLQSEDEADYYCAAWDDSLNGLVFGTGTKLTVL
modifications: PRSIM_67
For the molecule B2, the Max fold change in assay [1] (PRSIM fused to AD, one copy) was 87.1; in assay [1] (PRSIM fused to DBD, one copy), 1. For the same molecule, the EC50 was 4.97 nM in assay [1] (setting [2]) and 2.05 nM in assay [1] (setting [3]). Besides, the BSA control result with BSA is listed as “#”.

B3: PRSIM_04: scFv PRSIM binding molecule, SEQ ID NO: 11 (protein)
scFv: QVQLVQSGAEVKKPGSSVKVSCKASGGTFSSYAISWVRQAPGQGLEWMGGIIPIFGTANYAQKFQGRVTITADESTSTAYMELSSLRSEDTAVYYCARGMAHFYQFDLWGQGTLVTVSSGGGGSGGGGSGGGGSAQSVLTQPPSASGTPGQRVTISCSGSSSNIGSNTVNWYQQLPGTAPKLLIYSNNQRPSGVPDRFSGSKSGTSASLAISGLQSEDEADYYCAAGDHDHEHVVFGGGTKLTVL
modifications: PRSIM_04
As to B3, the Max fold change is reported as 6.9 in assay [1] (PRSIM fused to AD, one copy) and 1.364 in assay [1] (PRSIM fused to DBD, one copy). Besides, the EC50 was determined as 159000 nM in assay [1] (setting [2]) and 6.55 nM in assay [1] (setting [3]). Moreover, the BSA control entry with BSA was “#”.

B4: PRSIM_72: scFv PRSIM binding molecule, SEQ ID NO: 14 (protein)
scFv: QVQLVQSGAEVKKPGSSVKVSCKASGGTFSSYAISWVRQAPGQGLEWMGGIIPIFGTANYAQKFQGRVTITADESTSTAYMELSSLRSEDTAVYYCARGMAHFYQFDLWGQGTLVTVSSGGGGSGGGGSGGGGSAQSVLTQPPSASGTPGQRVTISCSGSSSNIGSNTVNWYQQLPGTAPKLLIYSNNQRPSGVPDRFSGSKSGTSASLAISGLQSEDEADYYCAAGDHDHEHVVFGGGTKLTVL
modifications: PRSIM_72
With B4, the Max fold change in assay [1] (PRSIM fused to AD, one copy) is recorded as 2.2; in assay [1] (PRSIM fused to DBD, one copy), 1.4. Moreover, the EC50 in assay [1] (setting [2]) was 4.84 nM; in assay [1] (setting [3]) it was 33 nM. Moreover, the BSA control entry with BSA is given as “#”.

B5: PRSIM_75: scFv PRSIM binding molecule, SEQ ID NO: 15 (protein)
scFv: EVQLVQSGAEVKKPGSSVKVSCKASGGSFNSYTLDWVRQAPGQGLEWMGGIIPVFGSPNYGQKFQGRVTITADESTSTAYMELSSLKSDDTAVYYCARGLVYQPLDSWGRGTLVTVSSGGGGSGGGGSGGGGSAQAVLTQPSSASGTPGQRVTISCSGSSSNIGSYTVNWYQQFPGTAPKLLIYSNTQRPSGVPDRFSGSKSGTSASLAISGLQSEDEADYYCAAWDDSLNGWVFGGGTKVTVL
modifications: PRSIM_75
On to B5, for which the Max fold change in assay [1] (PRSIM fused to AD, one copy) amounted to 40.67; in assay [1] (PRSIM fused to DBD, one copy), 9.4. Further, the EC50 in assay [1] (setting [2]) worked out at 2.17 nM; in assay [1] (setting [3]) it was 2.67 nM. Moreover, the BSA control result with BSA is listed as “#”.

B6: PRSIM_33: Tn3 PRSIM binding molecule, SEQ ID NO: 7 (protein)
chain: RLDAPSQIEVKDVTDTTALITWYPPGRWYDDIWYFELTYGIKDVPGDRTTIKLARGDDVYSIGNLKPDTEYEVSLISWGPDRGDRAGSNPAKITFKTGL
modifications: PRSIM_33
Consider B6, for which the Max fold change in assay [1] (PRSIM fused to AD, one copy) was 2.9; in assay [1] (PRSIM fused to DBD, one copy) it was 33.14. In addition, the 50% effective concentration (EC50) in assay [1] (setting [2]) was determined as 82.4 nM; in assay [1] (setting [3]), 12.8 nM. Moreover, in the assay with BSA, the BSA control entry is “#”.

B7: PRSIM_23: Tn3 protein specific for HCV NS3/4A PR (S139A):simeprevir complex, SEQ ID NO: 5 (protein)
chain: RLDAPSQIEVKDVTDTTALITWVDPRYDDIWWFELTYGIKDVPGDRTTIKLYLNDPYYSIGNLKPDTEYEVSLISYTGDSYSRSGSNPAKITFKTGL
modifications: PRSIM_23
In the case of B7, the Max fold change in assay [1] (PRSIM fused to AD, one copy) was 106 and 106.67; in assay [1] (PRSIM fused to DBD, one copy), 88 and 88.8. The EC50 in assay [1] (setting [2]) is 2.82 nM; in assay [1] (setting [3]), 2.47 nM; in assay [1] (fusion orientation not stated), 2 nM. Besides, the “fold increase in luciferase expression” value in assay [1] stood at 100 fold. Moreover, the results for the max fold change in assay [1] (one copy of PRSIM_23 fused to DBD), in assay [1] (three tandem PRSIM_23 fused to DBD) and in assay [1] (two tandem PRSIM_23 fused to DBD) were 364.5, 4862 fold and 2436, respectively. Also, in the assay with BSA, the BSA control result is “#”.
